Data from patent US20250215071A1, “Novel Mcl-1 inhibitor and combination of Mcl-1 and a BH3 mimetic, such as a Bcl-2 inhibitor” (NETRIS PHARMA, priority 2022, published 2025).

Test system: H322 cells
Assay: Xenografts of stable H322 cells in nude mice, tumor growth
Format: in vivo, NMRI nude mice
Conditions: 10 mg/Kg intravenously three times per week, vs Iso-mAb
Protocol: FIG. 3. COMMD2 is required for UNC5B-induced cell death and tumor suppression. (A): Silencing COMMD2 inhibits UNC5B-induced DNA fragmentation. Stable Hela cells inducible for UNC5B were transfected with two distinct siRNA scramble (siCTRL) or targeting COMMD2 (siCOMMD2-1 and -2). Upon treatment for 18 hours with the indicated concentrations of doxycycline (Dox), DNA fragmentation was evaluated through FACS analysis (n=3, **** p<0.0001, Ordinary two-way ANOVA). Values are given as means±SEM. (B, C, D): Tumor growth inhibition driven by netrin-1 interference necessitates UNC5B and COMMD2. NMRI nude mice were engrafted with stable H322 cells, knock-down for luciferase (sgLUC, used as a non-targeting control), UNC5B (sgUNC5B) or COMMD2 (sgCOMMD2), generated with CRISPR-Cas-9-KRAB strategy. Tumors obtained from nude mice engrafted with stable H322 cells were lysed and gene expression was evaluated by quantitative RT-PCR (n=2-3, *p<0.05, Kruskal-Wallis test with Dunn's multiple comparisons test) (B). After tumor volume reached 50 mm^3, mice were intravenously treated three time per week with anti-netrin-1 (NP137) or control (Iso-mAb) antibodies and tumor growth was evaluated (n=10 mice/group, ^nsp>0.05, *p<0.05, Mann-Whitney test, two-tailed) (C). A histogram illustrating tumor volumes at 35 days after first treatment is indicated in (D) (n=10 mice/group, ^nsp>0.05, *p<0.05, *** p<0.001, Kruskal-Wallis test with uncorrected Dunn's test). (E). Silencing of UNC5B and COMMD2 restrains in vivo NP137-induced apoptosis. After sacrificing the mice, tumors were resected and apoptosis was quantified by immunostaining of active cleaved caspase-3. […]
5-week-old female athymic NMRI nude mice were obtained from Janvier Labs (Saint Bertevin, France). […] Tumor size was measured three times per week with a caliper. Tumor volume was calculated according to the formula v=0.5× (l×w2), where v is volume, l is length, and w is width. […]

B1: NP137: humanized anti-netrin-1 monoclonal antibody, VH SEQ ID NO: 22, VL SEQ ID NO: 16, human IgG1 (antibody, V domains shown)
VH: QVQLQQSGPGLVKPSQTLSLTCAISGYTFTSYNMHWVRQATGQGLEWMGAIYPGNGDTSYNQKFKGRLTISKDTSKNQVVLTMTNMDPVDTATYYCARGGTGFAYWGQG
VL: DIQMTQSPSSLSASVGDRVTITCKASQSVSNDVAWYQQKPGQAPRLLIYYASNRYTGIPPRFSGSGYGTDFTLTINNIESEDAAYYFCQQDYSSPWTFGQG
modifications: human IgG1 constant region; humanized variant; MISC_FEATURE - CDR according to IGMT
tumor growth (H322 tumors knocked-out of COMMD2 (sgCOMMD2)): less sensitive | tumor growth (H322 tumors knocked-out of UNC5B (sgUNC5B)): less sensitive | tumor growth (control H322 cells (sgLUC)): strongly inhibited tumor growth
